Test results from patent US20220227866A1 (VELOSBIO, published 2022).
Several values for one entry are separate records, joined by “and”; a condition that tells them apart may be missing. Equal values may be shown once. Each block holds one binder with its values, some of them ahead of it.

Experiments:
[1] = target: T1, recombinant human ROR1 extracellular domain (human, UniProt Q01973 30-406); experiment: ELISA, Fab titrated on immobilized human ROR1
T1 construct: Bought (Acro Biosystems cat. R01-H522Y); whole entry named; also called ROR1-ECD; immobilized ROR1
T1 sequence (Q01973 30-406 limits assumed): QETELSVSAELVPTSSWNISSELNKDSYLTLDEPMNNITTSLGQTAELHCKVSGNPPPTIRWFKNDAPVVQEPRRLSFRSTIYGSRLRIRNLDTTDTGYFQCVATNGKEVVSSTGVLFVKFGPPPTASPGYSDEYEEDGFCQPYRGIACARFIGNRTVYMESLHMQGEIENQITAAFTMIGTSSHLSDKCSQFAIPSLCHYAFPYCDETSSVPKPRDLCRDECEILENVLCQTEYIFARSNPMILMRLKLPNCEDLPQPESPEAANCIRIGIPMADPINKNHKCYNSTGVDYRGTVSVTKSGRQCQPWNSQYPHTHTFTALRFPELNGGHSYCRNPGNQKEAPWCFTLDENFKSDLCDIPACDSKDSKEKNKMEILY

human ROR1 on cells [2] = target: T2, human ROR1 on cells (human, UniProt Q01973 30-937); experiment: cell-based or functional assay
T2 sequence (Q01973 30-937 limits assumed): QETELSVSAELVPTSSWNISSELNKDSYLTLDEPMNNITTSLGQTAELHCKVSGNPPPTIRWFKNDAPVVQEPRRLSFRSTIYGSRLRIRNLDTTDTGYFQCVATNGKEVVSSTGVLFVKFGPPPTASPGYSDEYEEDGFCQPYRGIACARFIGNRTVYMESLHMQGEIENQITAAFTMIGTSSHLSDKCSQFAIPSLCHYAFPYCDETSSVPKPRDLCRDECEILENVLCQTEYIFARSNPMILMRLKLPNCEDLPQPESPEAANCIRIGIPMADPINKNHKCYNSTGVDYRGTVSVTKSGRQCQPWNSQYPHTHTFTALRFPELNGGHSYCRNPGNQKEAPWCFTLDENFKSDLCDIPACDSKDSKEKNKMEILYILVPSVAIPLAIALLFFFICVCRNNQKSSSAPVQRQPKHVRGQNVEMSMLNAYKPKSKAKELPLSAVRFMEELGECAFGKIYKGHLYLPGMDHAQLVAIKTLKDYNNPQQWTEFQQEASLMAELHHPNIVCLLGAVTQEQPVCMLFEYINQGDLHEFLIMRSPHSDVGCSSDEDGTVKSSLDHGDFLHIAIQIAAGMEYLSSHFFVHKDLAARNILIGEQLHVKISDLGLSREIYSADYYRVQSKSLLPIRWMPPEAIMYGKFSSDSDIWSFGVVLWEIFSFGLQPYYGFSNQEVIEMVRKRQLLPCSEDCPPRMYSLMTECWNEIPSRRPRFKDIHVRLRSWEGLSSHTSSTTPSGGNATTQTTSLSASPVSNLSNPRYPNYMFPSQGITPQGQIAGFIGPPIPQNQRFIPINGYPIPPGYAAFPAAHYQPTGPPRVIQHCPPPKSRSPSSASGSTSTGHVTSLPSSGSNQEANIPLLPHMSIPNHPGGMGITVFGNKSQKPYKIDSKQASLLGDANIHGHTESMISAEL

[3] = target: T3, human CD3 on Jurkat cells (human, UniProt P09693 23-182; P04234 22-171; P07766 23-207); experiment: flow cytometry on Jurkat cells
T3 construct: GenBank NP_000064.1, NP_000723.1, NP_000724.1
T3 sequence (P09693 23-182 limits assumed, chain 1 of 3): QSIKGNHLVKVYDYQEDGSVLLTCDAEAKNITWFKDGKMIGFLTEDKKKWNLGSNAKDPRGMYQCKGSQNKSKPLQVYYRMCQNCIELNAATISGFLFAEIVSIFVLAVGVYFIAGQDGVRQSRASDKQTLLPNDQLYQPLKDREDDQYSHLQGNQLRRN
T3 sequence (P04234 22-171 limits assumed, chain 2 of 3): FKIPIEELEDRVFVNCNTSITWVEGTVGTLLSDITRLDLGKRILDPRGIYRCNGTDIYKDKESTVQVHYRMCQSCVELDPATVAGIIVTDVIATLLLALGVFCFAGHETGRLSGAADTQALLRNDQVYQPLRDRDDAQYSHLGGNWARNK
T3 sequence (P07766 23-207 limits assumed, chain 3 of 3): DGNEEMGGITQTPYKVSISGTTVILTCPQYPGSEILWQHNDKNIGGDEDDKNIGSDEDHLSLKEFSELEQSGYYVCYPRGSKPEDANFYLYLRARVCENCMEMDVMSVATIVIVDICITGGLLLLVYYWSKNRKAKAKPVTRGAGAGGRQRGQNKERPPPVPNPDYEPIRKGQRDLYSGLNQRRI
Experimental: (§1) To quantitate CD3 binding, 2.5E5 Jurkat cells were used for each condition. A 2× stock of the cells was made by resuspending the cells to 5E6/mL by placing in 50 μL of PBS with 2% FBS. Next, the cells were diluted with an equal volume of 2× stock of the test bispecific binding molecule. The cells and antibody were co-incubated on ice for 20 min. The cells were then washed 3 times with 300 μL of FACS buffer and were resuspended in 100 μL of goat anti-human Fc-PE conjugate antibody (Invitrogen cat. #12499882) at 1:500 dilution and incubated on ice with reduced light for 20 min. The cells were then washed 3 times with 300 μL of FACS buffer and fixed with 2% paraformaldehyde for 10 min at 25° C. The cells were washed 2 times with 300 μL of FACS buffer and analyzed on a Miltenyi MACSQuant Analyzer.

human ROR1 on cells [4] = target: T2, human ROR1 on cells; experiment: flow cytometry on ROR1-transfected MEC cells after 24 h incubation with the construct
[5] = target: T1, recombinant human ROR1 extracellular …; experiment: ELISA, immobilised ROR1 ECD, construct titrated
Experimental: A 96-well Costar-3366 plate was coated with 50 μL/well of 2 μg/mL […] (Acro Biosystems cat. #R01-H522Y) in PBS overnight at 4° C. The plate was rinsed once with PBS containing 0.05% Tween 20 (PBS-T) and blocked with 100 μL/well of 5% non-fat milk in PBS (5% M-P) for 1 h at 25° C. Antibody samples were serially diluted 2-fold using 5% M-P and were incubated for 1 h at 25° C. (50 μL/well). The plate was washed three times with PBS-T and 50 μL/well anti-human kappa, HRP conjugate (Southern Biotech cat. #2060-05) diluted 10,000-fold in 5% M-P was added for 1 h at 25° C. The plate was washed three times with PBS-T, developed with 50 μL/well 1-Step Ultra TMB-ELISA (Thermo Scientific cat. #34028). The reaction was terminated by the addition of 2 N H₂SO₄ and the A450 was determined using a Spectramax plate reader.
Next, the binding of bispecific binding molecules to ROR was characterized by ELISA using recombinantly-expressed extracellular domain of RORL. ROR was immobilized on a microtiter plate, the bispecific binding molecules were titrated, and binding was quantitated with an anti-human kappa-HRP reagent. Consistent with the cell binding data, all constructs bound ROR1 in a concentration-dependent manner (FIG. 6). Moreover, monovalent ROR1 constructs 13-15 bound less tightly than all but two of the bivalent constructs.

[6] = target: T4, soluble biotinylated human ROR1 extracellular domain (human, UniProt Q01973 30-406, biotinylated with EZ-Link Sulfo-NHS-LC-Biotin at a 1:5 molar ratio); experiment: ELISA, captured construct, biotinylated ROR1 titrated
T4 construct: Acro Biosystems cat; whole entry named; also called b-ROR1; soluble b-ROR1
T4 sequence (Q01973 30-406 limits assumed): as the sequence (Q01973 30-406 limits assumed) above
Experimental: To measure the binding of bispecific constructs to soluble ROR1, a 96-well Costar-3366 plate was coated with 50 μL/well of 2 μg/mL goat anti-human kappa (Southern Biotech cat. #2060-01) in PBS overnight at 4° C. The plate was rinsed once with PBS-T, blocked with 100 μL/well 5% M-P for 1 h at 25° C., rinsed once with PBS-T, and 2 μg/mL of the bispecific binding molecule was added and incubated for 1 h at 25° C. The plate was washed three times with PBS-T. Biotinylated ROR1 was diluted serially, 3-fold in 5% M-P and was incubated for 1 h at 25° C. (50 μL/well). The plate was washed three times with PBS-T. To detect the binding of b-ROR1, 50 μL/well Neutravidin-HRP (Pierce cat. #31030) diluted 1:5000 in 1% BSA-PBS was added for 1 h at 25° C. The plate was washed three times with PBS-T, then developed with 50 μL/well 1-Step Ultra TMB-ELISA (Thermo Scientific cat. #34028). The reaction was terminated by the addition of 2 N H₂SO₄ and the A450 was determined using a Spectramax plate reader.
The stronger binding observed with bivalent constructs versus monovalent constructs in cell assays and ELISAs in which the antigen is immobilized is consistent with an avidity effect. To determine if this was the case, binding to soluble monomeric ROR1 was assessed by immobilizing the bispecific binding molecules on a microtiter plate coated with goat anti-human kappa antibody and titrating biotinylated RORL. All bispecific binding molecules were active in this format (FIG. 7), and in most cases, there were no notable differences between monovalent and bivalent constructs.

[7] = target: T3, human CD3 on Jurkat cells; experiment: flow cytometry on Jurkat cells (1 ug/mL construct on ice, washed, then 37 C)
Experimental: as §1
To quantitate internalization of the bispecific binding molecules, 2.5E5 Jurkat cells were co-incubated with 1 μg/mL of the bispecific binding molecule on ice for 20 min. The cells were then washed 3 times 300 μL with ice-cold FACS buffer and were resuspended in culture media and incubated at 37° C. At various times, cells were removed, washed with 300 μL ice-cold FACS buffer and processed as described above.

human ROR1 on cells [8] = target: T2, human ROR1 on cells; experiment: flow cytometry on JeKo-1 cells
Experimental: ROR1 binding was quantitated using both ROR1-transfected MEC cells and JeKo-1 cells. For each condition, 2.5E5 cells were used. The cells were placed in 50 μL of PBS with 2% FBS. Next, the cells were diluted with an equal volume of 2× stock of the test bispecific binding molecule. The cells and antibody were co-incubated on ice for 20 min. The cells were then washed 3 times with 300 μL of FACS buffer and were resuspended in 100 μL of anti-human Fc-PE conjugate antibody (Invitrogen cat. #12499882) and incubated on ice with reduced light for 20 min. Subsequently, the cells were washed 3 times with 300 μL of FACS buffer and fixed with 2% paraformaldehyde for 10 min at 25° C. The cells then were washed 2 times with 300 μL of FACS buffer and analyzed on a Miltenyi MACSQuant Analyzer.
The influence of ROR expression levels on binding of the bispecific constructs was assessed by flow cytometry using JeKo-1 cells. JeKo-1 cells express lower levels of ROR (˜13,000 copies/cell) than the ROR1-transfected MEC cells (˜56,000 copies/cell). All constructs bound JeKo-1 cells (FIG. 5). […] Specifically, monovalent ROR1 constructs generally bound more weakly than the bivalent constructs (FIG. 5, Panel A, compare constructs 14 and 15 with other constructs; FIG. 5, Panel C, compare constructs 15-17 with other constructs).

B2: Bispecific construct 7 (bispecific antibody, human IgG1, kappa)
heavy: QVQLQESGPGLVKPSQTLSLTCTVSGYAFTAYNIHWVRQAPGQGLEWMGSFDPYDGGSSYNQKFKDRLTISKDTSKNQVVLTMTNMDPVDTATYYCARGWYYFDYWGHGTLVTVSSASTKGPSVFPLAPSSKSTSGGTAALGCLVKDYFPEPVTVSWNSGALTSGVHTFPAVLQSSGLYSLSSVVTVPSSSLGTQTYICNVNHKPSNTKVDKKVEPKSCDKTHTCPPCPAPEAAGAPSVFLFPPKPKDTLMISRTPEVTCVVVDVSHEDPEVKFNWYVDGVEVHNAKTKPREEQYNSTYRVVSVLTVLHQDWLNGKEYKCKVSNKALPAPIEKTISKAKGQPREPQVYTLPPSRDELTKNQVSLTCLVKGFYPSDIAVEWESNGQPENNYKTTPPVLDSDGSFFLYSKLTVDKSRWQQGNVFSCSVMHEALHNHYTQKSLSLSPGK
light: DIVMTQTPLSLPVTPGEPASISCRASKSISKYLAWYQQKPGQAPRLLIYSGSTLQSGIPPRFSGSGYGTDFTLTINNIESEDAAYYFCQQHDESPYTFGEGTKVEIKRTVAAPSVFIFPPSDEQLKSGTASVVCLLNNFYPREAKVQWKVDNALQSGNSQESVTEQDSKDSTYSLSSTLTLSKADYEKHKVYACEVTHQGLSSPVTKSFNRGECGGGGSGGGGSQVQLVQSGGGVVQPGRSLRLSCKASGYTFTRYTMHWVRQAPGKGLEWIGYINPSRGYTNYNQKVKDRFTISRDNSKNTLYLQMDSLRAEDTAVYYCARYYDDHYSLDYWGQGTTVTVSSGGGGSGGGGSGGGGSGGGGSDIQMTQSPSSLSASVGDRVTITCSASSSVSYMNWYQQKPGKAPKRWIYDTSKLASGVPSRFSGSGSGTDFTFTISSLQPEDIATYYCQQWSSNPFTFGQGTKLEIK
notes: ROR1 arm Ab1; valency 2/2
EC50, LDH release, Mino (human ROR1 on cells [2]): 0.97 ng/mL and 4.9 pM | EC50, LDH release, ROR1-transfected MEC (human ROR1 on cells [2]): 1.3 ng/mL and 6.5 pM | Max. LDH Release, Mino (human ROR1 on cells [2]): 50% | Max. LDH Release, ROR1-transfected MEC (human ROR1 on cells [2]): 55% | binding result [3]: binds | EC50 (read off the curve) (human ROR1 on cells [4]): ~0.005 µg/mL | Kd [5]: 0.05 nM | Kd [6]: 0.118 nM

B3: Bispecific construct 1 (bispecific antibody, human IgG1, kappa)
heavy: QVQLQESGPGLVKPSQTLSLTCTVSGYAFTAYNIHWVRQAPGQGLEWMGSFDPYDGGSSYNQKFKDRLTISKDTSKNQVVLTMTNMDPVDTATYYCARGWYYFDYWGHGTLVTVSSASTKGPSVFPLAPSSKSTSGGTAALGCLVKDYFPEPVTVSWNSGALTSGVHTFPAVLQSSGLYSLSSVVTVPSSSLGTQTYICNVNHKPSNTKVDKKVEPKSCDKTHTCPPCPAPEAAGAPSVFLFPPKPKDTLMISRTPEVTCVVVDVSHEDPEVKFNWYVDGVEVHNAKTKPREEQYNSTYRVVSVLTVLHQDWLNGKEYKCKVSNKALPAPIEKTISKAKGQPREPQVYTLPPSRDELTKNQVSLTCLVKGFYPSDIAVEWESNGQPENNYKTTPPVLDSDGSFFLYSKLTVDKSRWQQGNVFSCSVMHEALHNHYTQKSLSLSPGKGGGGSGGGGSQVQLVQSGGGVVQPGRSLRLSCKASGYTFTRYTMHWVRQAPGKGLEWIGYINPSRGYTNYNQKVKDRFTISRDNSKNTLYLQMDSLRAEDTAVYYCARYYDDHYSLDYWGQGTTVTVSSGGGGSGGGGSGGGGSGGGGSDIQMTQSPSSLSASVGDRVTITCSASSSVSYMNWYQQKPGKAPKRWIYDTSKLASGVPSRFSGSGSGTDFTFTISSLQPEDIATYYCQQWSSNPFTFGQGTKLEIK
light: DIVMTQTPLSLPVTPGEPASISCRASKSISKYLAWYQQKPGQAPRLLIYSGSTLQSGIPPRFSGSGYGTDFTLTINNIESEDAAYYFCQQHDESPYTFGEGTKVEIKRTVAAPSVFIFPPSDEQLKSGTASVVCLLNNFYPREAKVQWKVDNALQSGNSQESVTEQDSKDSTYSLSSTLTLSKADYEKHKVYACEVTHQGLSSPVTKSFNRGEC
notes: ROR1 arm Ab1; CD3 valency 2, ROR1 valency 2
EC50, LDH release, ROR1-transfected MEC (human ROR1 on cells [2]): 11 ng/mL and 55 pM | Max. LDH Release, ROR1-transfected MEC (human ROR1 on cells [2]): 42% | binding result [3]: binds | EC50 (read off the curve) (human ROR1 on cells [4]): ~0.003 µg/mL | Kd [5]: 0.2 nM | Kd [6]: 0.193 nM

B4: Bispecific construct 2 (bispecific antibody, human IgG1, kappa)
heavy: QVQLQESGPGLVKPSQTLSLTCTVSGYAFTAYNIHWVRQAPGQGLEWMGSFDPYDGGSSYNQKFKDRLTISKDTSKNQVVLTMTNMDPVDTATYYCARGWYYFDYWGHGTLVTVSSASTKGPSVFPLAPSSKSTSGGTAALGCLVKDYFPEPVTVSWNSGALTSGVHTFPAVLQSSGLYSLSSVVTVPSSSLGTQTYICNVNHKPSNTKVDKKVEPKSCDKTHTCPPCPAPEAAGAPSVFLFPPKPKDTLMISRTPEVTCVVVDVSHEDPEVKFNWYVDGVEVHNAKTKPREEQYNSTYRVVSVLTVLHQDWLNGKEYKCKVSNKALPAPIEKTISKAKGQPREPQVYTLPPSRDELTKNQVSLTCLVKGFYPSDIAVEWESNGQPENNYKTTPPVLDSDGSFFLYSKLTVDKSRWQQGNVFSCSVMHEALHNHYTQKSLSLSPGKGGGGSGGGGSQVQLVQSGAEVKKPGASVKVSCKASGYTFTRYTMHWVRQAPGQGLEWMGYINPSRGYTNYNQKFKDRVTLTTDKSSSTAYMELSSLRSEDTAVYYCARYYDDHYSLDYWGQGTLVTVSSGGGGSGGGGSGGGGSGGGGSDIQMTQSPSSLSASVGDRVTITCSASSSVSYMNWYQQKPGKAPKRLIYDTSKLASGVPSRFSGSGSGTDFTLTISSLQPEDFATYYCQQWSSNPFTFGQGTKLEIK
light: B3 light
notes: anti-CD3 scFv Ab9 (OKT3-based); ROR1 arm Ab1; valency 2/2
EC50, LDH release, ROR1-transfected MEC (human ROR1 on cells [2]): 5 ng/mL and 25 pM | Max. LDH Release, ROR1-transfected MEC (human ROR1 on cells [2]): 50% | binding result [7]: binds | Kd [5]: 0.041 nM | Kd [6]: 0.129 nM | EC50 (read off the curve) (human ROR1 on cells [8]): ~0.02 µg/mL

Other lines, results leading:

EC50 (read off the curve) [1]: ~6 nM
B1: parental Ab1 Fab (WT) (Fab, V domains shown)
VH: QVQLQESGPGLVKPSQTLSLTCTVSGYAFTAYNIHWVRQAPGQGLEWMGSFDPYDGGSSYNQKFKDRLTISKDTSKNQVVLTMTNMDPVDTATYYCARGWYYFDYWGHGTLVTVSS
VL: DIVMTQTPLSLPVTPGEPASISCRASKSISKYLAWYQQKPGQAPRLLIYSGSTLQSGIPPRFSGSGYGTDFTLTINNIESEDAAYYFCQQHDESPYTFGEGTKVEIKR
notes: Tested as Fab; also called parental Fab; parental antibody

binding result [3]: binds | Kd [5]: 0.055 nM | Kd [6]: 0.07 nM | EC50 (read off the curve) (human ROR1 on cells [8]): ~0.02 µg/mL
B5: Bispecific construct 5 (bispecific antibody, human IgG1, kappa)
heavy: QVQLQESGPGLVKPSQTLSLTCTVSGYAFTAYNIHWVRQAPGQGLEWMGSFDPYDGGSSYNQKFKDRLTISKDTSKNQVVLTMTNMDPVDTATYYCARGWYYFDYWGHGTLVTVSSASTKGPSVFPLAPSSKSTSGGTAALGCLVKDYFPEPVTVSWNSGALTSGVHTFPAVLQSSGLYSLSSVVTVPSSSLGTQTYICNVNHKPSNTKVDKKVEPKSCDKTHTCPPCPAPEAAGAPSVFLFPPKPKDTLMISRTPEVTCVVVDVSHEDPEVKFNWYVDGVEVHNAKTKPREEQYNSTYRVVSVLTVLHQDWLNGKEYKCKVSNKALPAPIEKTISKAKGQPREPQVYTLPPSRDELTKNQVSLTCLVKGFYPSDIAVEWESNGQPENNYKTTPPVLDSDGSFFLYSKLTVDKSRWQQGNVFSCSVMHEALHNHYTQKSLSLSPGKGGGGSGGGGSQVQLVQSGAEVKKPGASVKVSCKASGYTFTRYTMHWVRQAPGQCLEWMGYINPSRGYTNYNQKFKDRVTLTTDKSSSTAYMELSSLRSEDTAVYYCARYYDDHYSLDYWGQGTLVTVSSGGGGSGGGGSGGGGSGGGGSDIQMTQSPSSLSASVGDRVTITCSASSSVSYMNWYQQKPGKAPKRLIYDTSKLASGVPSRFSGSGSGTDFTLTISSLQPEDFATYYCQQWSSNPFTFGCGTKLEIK
light: B3 light
notes: disulfide-stabilized anti-CD3 scFv Ab9; ROR1 arm Ab1; valency 2/2

EC50, LDH release, A549 (human ROR1 on cells [2]): 3.39 ng/mL and 17.1 pM | EC50, LDH release, A4573 (human ROR1 on cells [2]): 1.2 ng/mL and 6.1 pM | EC50, LDH release, JeKo-1 (human ROR1 on cells [2]): 1.62 ng/mL and 8.1 pM | EC50, LDH release, Mino (human ROR1 on cells [2]): 0.95 ng/mL and 4.8 pM | EC50, LDH release, Saos-2 (human ROR1 on cells [2]): 2.92 ng/mL and 14.7 pM | Max. LDH Release, Mino (human ROR1 on cells [2]): 53% | binding result [7]: binds | Kd [5]: 0.098 nM | Kd [6]: 0.151 nM
B6: Bispecific construct 8 (bispecific antibody, human IgG1, kappa)
heavy: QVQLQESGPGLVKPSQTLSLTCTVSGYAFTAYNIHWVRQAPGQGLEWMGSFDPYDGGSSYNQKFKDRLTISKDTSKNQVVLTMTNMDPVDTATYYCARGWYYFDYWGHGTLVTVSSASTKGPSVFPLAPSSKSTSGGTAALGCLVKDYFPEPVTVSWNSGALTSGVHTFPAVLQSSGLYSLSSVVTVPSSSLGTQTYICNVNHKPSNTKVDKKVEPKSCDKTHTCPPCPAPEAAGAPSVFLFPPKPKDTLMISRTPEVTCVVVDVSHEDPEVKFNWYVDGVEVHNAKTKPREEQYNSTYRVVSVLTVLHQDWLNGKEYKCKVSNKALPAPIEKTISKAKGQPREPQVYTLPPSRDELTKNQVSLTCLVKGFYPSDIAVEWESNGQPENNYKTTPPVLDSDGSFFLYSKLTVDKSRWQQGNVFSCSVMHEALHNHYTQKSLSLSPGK
light: DIVMTQTPLSLPVTPGEPASISCRASKSISKYLAWYQQKPGQAPRLLIYSGSTLQSGIPPRFSGSGYGTDFTLTINNIESEDAAYYFCQQHDESPYTFGEGTKVEIKRTVAAPSVFIFPPSDEQLKSGTASVVCLLNNFYPREAKVQWKVDNALQSGNSQESVTEQDSKDSTYSLSSTLTLSKADYEKHKVYACEVTHQGLSSPVTKSFNRGECGGGGSGGGGSQVQLVQSGAEVKKPGASVKVSCKASGYTFTRYTMHWVRQAPGQGLEWMGYINPSRGYTNYNQKFKDRVTLTTDKSSSTAYMELSSLRSEDTAVYYCARYYDDHYSLDYWGQGTLVTVSSGGGGSGGGGSGGGGSGGGGSDIQMTQSPSSLSASVGDRVTITCSASSSVSYMNWYQQKPGKAPKRLIYDTSKLASGVPSRFSGSGSGTDFTLTISSLQPEDFATYYCQQWSSNPFTFGQGTKLEIK
notes: as for B4
